From publication PMC9669019, “Molecular basis for integrin adhesion receptor binding to p21-activated kinase 4 (PAK4)” (Communications Biology, 2022)
Where “and” joins values, the source holds several entries; their conditions need not be identical. Equal entries are not always repeated. One block for each binder: values may come before it. Ends that are not written are not given here. helical region = not defined here

Key:
[1] = molecular target: T1, PAK4 catalytic domain, purified recombinant (PAK4-cat) (human, UniProt O96013 286-591); experiment: cell-based or functional assay
[2] = molecular target: T1, PAK4 catalytic domain, purified …; experiment: pull-down; His-tagged β5 tails on Ni-NTA beads; varying concentrations of purified PAK4-cat in buffer X-T, 2 h, 4 °C; apparent affinity, one-site specific-binding model, three independent experiments; conditions: both partners purified
PAK4 catalytic domain = molecular target: T2, PAK4 catalytic domain (human, UniProt O96013 286-591); experiment: ITC; Nano-ITC, 25 °C, PBS pH 7.4; 407 µM integrin β5^743–799 in the syringe titrated into 44 or 72 µM PAK4cat in the sample cell; PAK4cat pre-incubated with 5 mM MgCl2 and 1 mM AMP-PNP; 20 injections of 2.5 µL; conditions: both partners purified
T2 construct: the GFP-PAK4-cat of the pull-downs is 302-591; The His tag is cleavable by TEV protease; also called PAK4 kinase domain; source: E. coli BL21-CodonPlus(DE3)RILP, purified (HisTrap, Resource Q, Superdex 200)

[3] = molecular target: T1, PAK4 catalytic domain, purified …; experiment: ITC; Nano-ITC, 25 °C, PBS pH 7.4; 407 µM integrin β5 743–799 in the syringe, 44 and 72 µM PAK4cat (pre-incubated with 5 mM MgCl2 and 1 mM AMP-PNP) in the cell; 20 injections of 2.5 µL; conditions: both partners purified

T2 sequence (O96013 286-591): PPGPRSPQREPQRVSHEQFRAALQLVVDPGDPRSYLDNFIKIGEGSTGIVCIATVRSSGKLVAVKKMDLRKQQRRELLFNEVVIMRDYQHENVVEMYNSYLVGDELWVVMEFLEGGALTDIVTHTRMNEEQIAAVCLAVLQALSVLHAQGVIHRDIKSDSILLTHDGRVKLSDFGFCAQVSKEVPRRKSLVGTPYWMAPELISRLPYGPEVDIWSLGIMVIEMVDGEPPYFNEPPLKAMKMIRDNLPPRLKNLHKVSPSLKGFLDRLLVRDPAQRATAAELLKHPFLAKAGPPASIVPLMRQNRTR
T1 sequence (O96013 286-591): as above

B2: 6xHis integrin β5 full-length cytosolic peptide (residues 743–799) (domain or fragment, UniProt P18084 743-799, looked up)
chain: KLLVTIHDRREFAKFQSERSRARYEMASNPLYRKPISTHTVDFTFNKFNKSYNGTVD
modifications: also: 6xHis tag, position not given here
notes: also called integrin β5 cytoplasmic tail
Kd (PAK4 catalytic domain): 5.1 µM and 4.8 µM
stoichiometry N (PAK4 catalytic domain): 1.4 and 0.7

B3: 6xHis integrin β5 full-length cytosolic peptide (residues 743–799) (domain or fragment, UniProt P18084 743-799, looked up)
chain: B2 chain
modifications: also: 6xHis tag, position not given here
notes: subcloned into a pET32 vector
Kd [3]: 4.95 ± 1.5 µM
dH [3]: -2.02 ± 0.179 kcal/mol
stoichiometry N [3]: 1.05 ± 0.35

The next lines start with the values.

inhibition of PAK4 phosphorylation of a LIMK1 10mer peptide (…, 50 µM) in a radioactive in vitro kinase assay, β5 peptide 0–1024 µM, 1 mg/ml BSA: IC50 [1]: 160 µM
Binder: Ac-ERSRARYEMAS-NH2 [integrin β5 peptide, residues Glu760-Ser770]

Kd [2]: ~1.8 µM
B1: His-tagged recombinant model of the integrin β5 cytoplasmic tail (domain or fragment)
chain: {His‑tag-helical region-Gly4}-KLLVTIHDRREFAKFQSERSRARYEMASNPLYRKPISTHTVDFTFNKFNKSYNGTVD
modifications: not fully specified; reading uncertain
